Experiments:
[1] = biological target: human iNOS oxygenase domain, recombinant (human); experiment: ITC
[2] = biological target: human iNOS oxygenase domain, recombinant (human); experiment: SPR

human iNOS oxygenase domain, recombinant (human), sequence (P35228 whole entry, the tested form may be a part): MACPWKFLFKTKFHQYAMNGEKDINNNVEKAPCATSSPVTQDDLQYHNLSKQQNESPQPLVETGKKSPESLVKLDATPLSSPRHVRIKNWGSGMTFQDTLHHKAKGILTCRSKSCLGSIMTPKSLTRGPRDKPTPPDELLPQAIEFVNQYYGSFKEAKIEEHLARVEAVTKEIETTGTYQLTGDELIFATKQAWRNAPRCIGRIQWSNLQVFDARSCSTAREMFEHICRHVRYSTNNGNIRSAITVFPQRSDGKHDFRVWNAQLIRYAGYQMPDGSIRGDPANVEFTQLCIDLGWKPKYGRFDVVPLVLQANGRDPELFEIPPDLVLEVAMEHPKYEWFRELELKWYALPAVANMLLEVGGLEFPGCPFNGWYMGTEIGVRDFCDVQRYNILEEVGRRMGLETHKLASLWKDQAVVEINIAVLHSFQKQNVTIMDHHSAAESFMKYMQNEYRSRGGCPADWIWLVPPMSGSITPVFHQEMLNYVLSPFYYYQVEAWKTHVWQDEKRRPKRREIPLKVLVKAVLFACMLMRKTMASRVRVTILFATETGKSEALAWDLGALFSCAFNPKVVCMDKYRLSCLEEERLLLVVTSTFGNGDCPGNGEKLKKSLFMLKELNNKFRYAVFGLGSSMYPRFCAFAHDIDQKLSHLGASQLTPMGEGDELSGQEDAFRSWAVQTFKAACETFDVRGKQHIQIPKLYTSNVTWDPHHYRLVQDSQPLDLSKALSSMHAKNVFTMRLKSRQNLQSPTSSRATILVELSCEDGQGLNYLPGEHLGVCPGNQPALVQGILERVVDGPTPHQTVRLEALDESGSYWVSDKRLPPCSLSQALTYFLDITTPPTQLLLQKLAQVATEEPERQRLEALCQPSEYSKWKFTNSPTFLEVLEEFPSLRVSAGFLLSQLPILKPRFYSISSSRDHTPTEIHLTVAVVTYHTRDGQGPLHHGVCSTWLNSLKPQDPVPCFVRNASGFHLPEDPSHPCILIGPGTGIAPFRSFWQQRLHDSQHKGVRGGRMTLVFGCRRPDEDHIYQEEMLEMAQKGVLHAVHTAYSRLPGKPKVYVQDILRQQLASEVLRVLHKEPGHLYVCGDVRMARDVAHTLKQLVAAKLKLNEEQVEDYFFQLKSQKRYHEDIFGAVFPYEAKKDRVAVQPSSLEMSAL

dH [1]: -160 kJ/mol
stoichiometry N [1]: 0.505
Kd [2]: 7.11 nM
B1: Nitric oxide synthase interacting protein (NOSIP), full length, recombinant (natural protein)
chain: MTRHGKNCTAGAVYTYHEKKKDTAASGYGTQNIRLSRDAVKDFDCCCLSLQPCHDPVVTPDGYLYEREAILEYILHQKKEIARQMKAYEKQRGTRREEQKELQRAASQDHVRGFLEKESAIVSRPLNPFTAKALSGTSPDDVQPGPSVGPPSKDKDKVLPSFWIPSLTPEAKATKLEKPSRTVTCPMSGKPLRMSDLTPVHFTPLDSSVDRVGLITRSERYVCAVTRDSLSNATPCAVLRPSGAVVTLECVEKLIRKDMVDPVTGDKLTDRDIIVLQRGGTGFAGSGVKLQAEKSRPVMQA

Reference: article doi:10.1101/038398
